# Results from patent US20140370037A1 (published 2014).
# Changes are numbered by the printed parent chain.
# T1: human DLL3 antigen (human, UniProt Q9NYJ7 27-492)
# T1 chain: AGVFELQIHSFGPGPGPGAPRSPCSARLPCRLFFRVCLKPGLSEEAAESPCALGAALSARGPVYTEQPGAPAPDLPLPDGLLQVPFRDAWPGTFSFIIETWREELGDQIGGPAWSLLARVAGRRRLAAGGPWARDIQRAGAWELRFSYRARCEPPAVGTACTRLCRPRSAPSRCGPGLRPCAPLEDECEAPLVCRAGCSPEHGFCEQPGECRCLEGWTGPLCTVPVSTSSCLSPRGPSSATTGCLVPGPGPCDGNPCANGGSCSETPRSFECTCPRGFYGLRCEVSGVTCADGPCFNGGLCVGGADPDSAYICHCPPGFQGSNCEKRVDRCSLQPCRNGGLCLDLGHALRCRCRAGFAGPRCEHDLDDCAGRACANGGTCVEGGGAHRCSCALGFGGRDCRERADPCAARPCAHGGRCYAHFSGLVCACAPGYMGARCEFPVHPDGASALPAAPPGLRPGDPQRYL
# B1: SC16.67 (antibody, V domains shown)
# VH: EVQLVETGGGLVQPKGSLKLSCAVSAFTFTTYAMNWVRQAPGKGLEWVARIRNKSNNYATYYADSVKDRFTISRDDSQSMLYLQMNNLKIEDTAMYYCVFYYDYVYWGQGTLVTVSA
# VL: QAVVTQESALTTSPGETVTLTCRSSTGAVTTSNYANWIQEKPDHLFTGLIGGTNNRAPGVPARFSGSLIGDKAALTITGAQTEDEAIYFCGLWYSNHLVFGGGTKLTVL
# B2: SC16.13 (antibody, V domains shown)
# VH: QVTLKESGPGILQPSQTLSLTCSFSGFSLSTSGMGVGWIRQPSGKGLEWLAHIWWDDVKRYNPALKSRLTISKDTSSSQVFLKIASVDTADTATYYCARIVSFDNDVVSAMDYWGQGTSVTVSS
# VL: QIVLTQSPALVSASPGEKVTMTCSASSSVSYMYWYQQKPRSSPKPWIYLTSNLASGVPARFSGSGSGTSYSLTISSMEAEDAATYYCQQWRSNPFTFGSGTKLEIK
# B3: SC16.65 (antibody, V domains shown)
# VH: B2 VH with H52L, T75A, V101A, F103Y, N105Y, S109Y, T121S
# VL: B2 VL with V11M, A25V, S26T, M77V, S92N, L103V
# B4: hSC16.34 (antibody, V domains shown)
# VH: QVQLVQSGAEVKKPGASVKVSCKASGYTFTNYGMNWVRQAPGQRLEWMGWINTYTGDPTYADDFKGRVTITRDTSASTAYMELSSLRSEDTAVYYCARIGGNSPSDYWGQGTTVTVSS
# VL: DIQMTQSPSSLSASVGDRVTITCKASQSVSNDVAWYQQKPGKVPKLLIYYASNRYSGVPSRFSGSGSGTDFTLTISSLQPEDVATYFCQQDYSSPWTFGGGTKVEIK
# B5: hSC16.56 (antibody, V domains shown)
# VH: B4 VH with R44G, D57E, I70M, R72T, A76T, S84R, E89D, G101D, N102S, T113L
# VL: EIVMTQSPATLSVSPGERATLSCKASQSVSNDVVWYQQKPGQAPRLLIYYASNRYTGIPARFSGSGSGTEFTLTISSLQSEDFAVYYCQQDYTSPWTFGQGTKLEIKR
# B6: SC16.34 (antibody, V domains shown)
# VH: QIQLVQSGPELKRPGETVKISCKASGYTFTNYGMNWVKQAPGKGLKWMGWINTYTGDPTYADDFKGRFAFSLETSASTAYLQINNLKNEDTATYFCARIGGNSPSDYWGQGTSLTVSS
# VL: SIVMTQTPKFLLVSAGDRVTITCKASQSVSNDVAWYQQKPGQSPKLLIYYASNRYSGVPDRFTGSGYGTDFTFTISTVQAEDLAVYFCQQDYSSPWTFGGGTKLEIK
# B7: SC16.56 (antibody, V domains shown)
# VH: B6 VH with R13K, G49A, D57E, Y80S, N84I, G101D, N102S, S113T
# VL: B6 VL with A34V, S56T, T63A, T72S, S93T, K107R
# B8: SC16.8 (antibody, V domains shown)
# VH: QAQLQQSGAELVRPGTSVKVSCKASGYAFTNYLIEWVKQRPGQGLEWIGVINPGTGGTNYNENFKGKATLTADKSSSTAYMQLSSLTSDDSAVYFCARSPYDYHEGAMDYWGQGTSVTVSS
# VL: EIQMTQSPSSMSASLGDRITITCQATQDIVKNLNWYQQKPGKPPSFLIYYAIELAEGVPSRFSGSGSGSDYSLTISNLESEDFADYYCLQFYEFPFTFGAGTKLELK
# B9: hSC16.25 (antibody, V domains shown)
# VL: EIVLTQSPDFQSVTPKEKVTITCSASSSVSYMHWYQQKPDQSPKLLIKDSSKLASGVPSRFSGSGSGTDFTLTINSLEAEDAATYYCQQWSSNPLTFGQGTKLEIK
# V domain: QITLKESGPTLVKPTQTLTLTCTFSGFSLSTSGMGVGWIRQPPGKALEWLTDIWWDDNKYYNPSLKSRLTITKDTSKNQVVLTMTNMDPVDTATYYCARRVNYYYDPYYAMDYWGQGTTLVTVS
# B10: SC16.10 (antibody, V domains shown)
# VH: QVTLKESGPGILQSSQTLSLTCSFSGFSLSTSGMGVGWIRQPSGKGLEWLAHIWWDDVKRYNPVLKSRLTISKDTSSSQVFLKIASVDTADTATYYCARLVDDLYYFDYWGQGTTLTVSS
# VL: QIVLTQSPAIMSASLGERVTMTCTASSSVSSSYLHWYQQKPGSSPKLWIYSTSNLASGVPTRFSGSGSGTSYSLTISSMEAEDAATYYCHQYHRSPFTFGSGTKLEIK
# B11: hSC16.15 (antibody, V domains shown)
# VH: QVQLVQSGAEVKKPGASVKVSCKASGYTFTRYWIHWIRQAPGQGLEWMGYINPTTVYTEFNQNFKDRVTMTRDTSTSTVYMELSSLRSEDTAVYYCARGGSNFFDYWGQGTTVTVSS
# VL: AIQLTQSPSSLSASVGDRVTITCRASENIYYNLAWYQQKPGKAPKLLIYTANSLEDGVPSRFSGSGSGTDFTLTISSLQPEDFATYFCKQAYDVPPTFGGGTKLEIK
# B12: hSC16.13 (antibody, V domains shown)
# VH: QITLKESGPTLVKPTQTLTLTCTFSGFSLSTSGMGVGWIRQPPGKALEWLAHIWWDDVKRYSPSLKSRLTITKDTSKNQVVLTMTNMDPVDTATYYCARIVSFDNDVVSAMDYWGQGTLVTVSS
# VL: DIQMTQSPSSLSASVGDRVTITCSASSSVSYMYWYQQKPGKAPKLLIYLTSNLASGVPSRFSGSGSGTDFTLTISSLQPEDFATYYCQQWRSNPFTFGQGTKLEIKR
# B13: SC16.4 (antibody, V domains shown)
# VH: QIQLVQSGPELKKPGETVKISCKASGYTFTDYSMHWVKQAPGKGLKWMGWINTETGEPGYADDFKGRFAFSLETSASTAYLQINNLKNEDTATYFCARYDGYAMDYWGQGTSVTVSS
# VL: DIQMTQTTSSLSASLGDRVTISCRASQDISNYLNWYQQKPDGTVKLLIYYTSRLHSGVPSRFSGSGSGTDYSLTISNLELEDIATYFCQQGDMLPWTFGGGTKLEIK
# B14: SC16.39 (antibody, V domains shown)
# VH: EVKLEESGGGLVQFGGSMKLSCAASGFTFSDAWMDWVRQSPEKGLEWVAEIRNKANNHATYYPESVKGRFTISRDDSKSRVYLQMNNLRAEDTGIYYCTGYSSFAYWGQGTLVTVSA
# VL: B13 VL with I29V, S30I, G68R, L80P, F87Y, G91Y, D92S, M93E, L94R, W96Y
# B15: SC16.15 (antibody, V domains shown)
# VH: QVQLQQSGAELAKPGASVKMSCKASGYTFTRYWIHWIKQRPGQGLEWIGYINPTTVYTEFNQNFKDKATLTADKSSTTASMQLSSLTSEDSAVYYCARGGSNFFDYWGQGTTLTVSS
# VL: DIQMTQSPASLAASVGETVAITCRASENIYYNLAWYQQKQGKSPQLLIYTANSLEDGVPSRFSGSGSGTQYSLKINSMQPEDSATYFCKQAYDVPPTFGGGTKLEIK
# B16: SC16.25 (antibody, V domains shown)
# VH: QVTLKESGPGILQPSQTLSLTCSFSGFSLSTSGMGVGWIRQPSGEGLEWLTDIWWDDNKYYNPSLKSRLTISKDTSSNQVFLNITSVDTADTATYYCARRVNYYYDPYYAMDYWGQGTSVTVSS
# VL: QIVLTQSPAIMSASPGEKVTMTCSASSSVSYMHWYQQKSGTSPKRWIYDSSKLASGVPARFSGSGSGTSYSLTISSMEAEDAATYYCQQWSSNPLTFGAGTKLELK
# Experiments:
# human DLL3 antigen [1] = target: T1, human DLL3 antigen; assay: ForteBio
# human DLL3 antigen [2] = target: T1, human DLL3 antigen; assay: Biacore SPR
# human DLL3 antigen [3] = target: T1, human DLL3 antigen; assay: SPR
# human DLL3 antigen [4] = target: T1, human DLL3 antigen; assay: ForteBio
Binder,Kd (human DLL3 antigen [2]) [nM],Kd (human DLL3 antigen [3]) [nM],further results
B1,,,Kd (human DLL3 antigen [1]): 0.5 nM
B2,2,0.3,
B3,0.9,,
B4,,0.9,
B5,,0.5,
B6,0.2,0.6,
B7,1,0.5,
B8,,,Kd (human DLL3 antigen [1]): 0.5 nM
B9,,< 0.2,
B10,,,Kd (human DLL3 antigen [1]): 4 nM
B11,,0.2,
B12,,0.5,
B13,,,Kd (human DLL3 antigen [1]): 0.5 nM
B14,,,Kd (human DLL3 antigen [4]): 1 nM
B15,0.5,,
B16,0.2,< 0.2,
